Read-outs that look alike come from different tables or passages of the source. Each block holds one binder with its values, some of them ahead of it.
Assays:
Test in all cases: cell-based or functional assay
Human CXCR2 [1] = target: T1, Human CXCR2 (human, UniProt P25025 1-360)
T1 sequence: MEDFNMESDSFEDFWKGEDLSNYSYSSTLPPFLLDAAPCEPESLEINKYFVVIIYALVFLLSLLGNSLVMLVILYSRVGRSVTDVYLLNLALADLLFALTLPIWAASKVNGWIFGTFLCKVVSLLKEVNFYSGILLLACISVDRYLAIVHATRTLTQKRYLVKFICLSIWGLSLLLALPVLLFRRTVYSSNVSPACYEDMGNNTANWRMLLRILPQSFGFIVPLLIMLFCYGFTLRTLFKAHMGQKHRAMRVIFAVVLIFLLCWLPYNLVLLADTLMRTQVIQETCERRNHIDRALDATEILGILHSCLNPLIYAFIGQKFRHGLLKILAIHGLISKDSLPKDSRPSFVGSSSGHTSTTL

Cynomolgus CXCR2 [2] = target: T2, Cynomolgus CXCR2 (cynomolgus, UniProt Q28519 3-353 (rhesus entry))
T2 chain: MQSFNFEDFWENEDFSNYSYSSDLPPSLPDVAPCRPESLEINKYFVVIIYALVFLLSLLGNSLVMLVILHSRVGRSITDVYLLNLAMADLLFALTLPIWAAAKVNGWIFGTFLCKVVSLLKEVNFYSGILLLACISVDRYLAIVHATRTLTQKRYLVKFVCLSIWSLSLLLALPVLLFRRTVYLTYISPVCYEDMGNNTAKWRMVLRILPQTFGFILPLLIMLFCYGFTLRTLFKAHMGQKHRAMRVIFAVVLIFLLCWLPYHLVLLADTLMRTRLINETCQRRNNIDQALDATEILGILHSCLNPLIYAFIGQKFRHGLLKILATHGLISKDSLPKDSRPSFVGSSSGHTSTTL

Human CXCR2 [3] = target: T1, Human CXCR2; remark: listed apart in the source
Human CXCR2 [4] = target: T1, Human CXCR2; remark: listed apart in the source
Cynomolgus CXCR2 [5] = target: T2, Cynomolgus CXCR2
Human CXCR2 [6] = target: T1, Human CXCR2; remark: listed apart in the source
Human CXCR2 [7] = target: T1, Human CXCR2; remark: listed apart in the source
Cynomolgus CXCR2 [8] = target: T2, Cynomolgus CXCR2

B2: 163E03 (VHH, not shown: small tags and cut ends)
VHH: EVQLVESGGGLVQPGGSLRLSCVASGRIFSSNAMGWFRQAPGKEREFVAAITWRSGGSAYYADSAKGRFTISRDNAKNTVYLQMNSLKPEDTAVYYCAAGGSSWLSFPPDYWGQGTQVTVSS
FLIPR IC50, GRO-α induced intracellular calcium release (Human CXCR2 [1]): 44.3 nM
[35S]GTPγS % inhibition max, GRO-α (Human CXCR2 [1]): 100%
[35S]GTPγS accumulation IC50, GRO-α (Human CXCR2 [1]): 64.7 nM
FLIPR IC50, GRO-α induced intracellular calcium release (Cynomolgus CXCR2 [2]): 158 nM
Human Chemotaxis IC50 (GROα) (Human CXCR2 [3]): 1.3 nM
HumanWBSC IC50 (rhGROα) (Human CXCR2 [3]): 9.4 nM

B3: 127D01 (VHH, not shown: small tags and cut ends)
VHH: EVQLVESGGGLVQAGESLRLSCAASGSTFDFKVMGWYRQPPGKQREGVAAIRLSGNMHYAESVKGRFTISKANAKNTVYLQMNSLRPEDTAVYYCKVNIRGQDYWGQGTQVTVSS
FLIPR IC50, GRO-α induced intracellular calcium release (Human CXCR2 [1]): 21.9 nM
[35S]GTPγS % inhibition max, GRO-α (Human CXCR2 [1]): 66%
[35S]GTPγS accumulation IC50, GRO-α (Human CXCR2 [1]): 12.5 nM
FLIPR IC50, GRO-α induced intracellular calcium release (Cynomolgus CXCR2 [2]): 753 nM
Human Chemotaxis IC50 (GROα) (Human CXCR2 [3]): 3.9 nM
HumanWBSC IC50 (rhGROα) (Human CXCR2 [3]): 4.9 nM

B5: CXCR20020 (bispecific antibody, not shown: small tags and cut ends)
chain: EVQLVESGGGLVQAGESLRLSCAASGSTFDFKVMGWYRQPPGKQREGVAAIRLSGNMHYAESVKGRFTISKANAKNTVYLQMNSLRPEDTAVYYCKVNIRGQDYWGQGTQVTVSSGGGGSGGGGSGGGGSGGGGSGGGGSGGGGSGGGGSEVQLVESGGGLVQAGGSLRLSCAASGRTFSDYAMGWFRQAPGKEREFVAAITWNGGRVFYTASVKGRFTISRDNAKNTMYLQMNSLKPEDTAVYYCAADKDRRTDYLGHPVAYWGQGTQVTVSS
FLIPR IC50, GRO-α induced intracellular calcium release (Human CXCR2 [4]): 6.98 nM
FLIPR IC50, GRO-α induced intracellular calcium release (Cynomolgus CXCR2 [5]): 1.64 nM
[35S]GTPγS % inhibition of max, ENA-78 (Human CXCR2 [6]): 100%
[35S]GTPγS % inhibition of max, GRO-α (Human CXCR2 [6]): 100%
[35S]GTPγS % inhibition of max, IL-8 (Human CXCR2 [6]): 100%
[35S]GTPγS accumulation IC50, ENA-78 (Human CXCR2 [6]): 0.707 nM
[35S]GTPγS accumulation IC50, GRO-α (Human CXCR2 [6]): 0.634 nM
[35S]GTPγS accumulation IC50, IL-8 (Human CXCR2 [6]): 0.619 nM
Human Chemotaxis IC50 (vs rhGROα) (Human CXCR2 [7]): 0.145 nM
Human WBSC IC50 (vs rhGROα) (Human CXCR2 [7]): 0.17 nM
Cynomologus WBSC IC50 (vs rhGROα) (Cynomolgus CXCR2 [8]): 0.12 nM

B6: 54B12 (VHH, not shown: small tags and cut ends)
VHH: EVQLVESGGGLVQAGGSLTLSCAVSGSTFRINTMGWYRRAPGKQRELVAARDRGGYINYVDSVKGRFTVSRDNAKPTMYLQMNSLKPEDTAVYYCHAGTQDRTGRNFDRWGQGTQVTVSS
FLIPR IC50, GRO-α induced intracellular calcium release (Human CXCR2 [1]): 153 nM
[35S]GTPγS % inhibition max, GRO-α (Human CXCR2 [1]): 71.8%
[35S]GTPγS accumulation IC50, GRO-α (Human CXCR2 [1]): 15.4 nM
FLIPR IC50, GRO-α induced intracellular calcium release (Cynomolgus CXCR2 [2]): 4080 nM
HumanWBSC IC50 (rhGROα) (Human CXCR2 [3]): 19.7 nM

B8: 097A09 (VHH, not shown: small tags and cut ends)
VHH: EVQLVESGGGLVQPGGSLRLSCVASGSIVRINTMGWYRQTPGKQRELVADITSGGNINYIDAVKGRFTISRDNTKNTVYLQMNSLKPEDTAVYYCNAEIVVLVGVWTQRARTGNYWGQGTQVTVSS
FLIPR IC50, GRO-α induced intracellular calcium release (Human CXCR2 [1]): 39.9 nM
[35S]GTPγS % inhibition max, GRO-α (Human CXCR2 [1]): 100%
[35S]GTPγS accumulation IC50, GRO-α (Human CXCR2 [1]): 50.3 nM
FLIPR IC50, GRO-α induced intracellular calcium release (Cynomolgus CXCR2 [2]): 640 nM
Human Chemotaxis IC50 (GROα) (Human CXCR2 [3]): 4.8 nM
HumanWBSC IC50 (rhGROα) (Human CXCR2 [3]): 11.6 nM

Continued, values first:

FLIPR IC50, GRO-α induced intracellular calcium release (Human CXCR2 [1]): 441 nM
[35S]GTPγS % inhibition max, GRO-α (Human CXCR2 [1]): 71.3%
[35S]GTPγS accumulation IC50, GRO-α (Human CXCR2 [1]): 103 nM
FLIPR IC50, GRO-α induced intracellular calcium release (Cynomolgus CXCR2 [2]): 3850 nM
Human Chemotaxis IC50 (GROα) (Human CXCR2 [3]): 50 nM
HumanWBSC IC50 (rhGROα) (Human CXCR2 [3]): 29.5 nM
B1: 2B2 (VHH, not shown: small tags and cut ends)
VHH: EVQLVESGGELVQPGGSLRLSCAASGSILTINAMGWYRQAPGKQRELVVRRTRGGSTTYQDSVKGRFTISADIAKKTMYLQMNSLKPEDTAVYYCMLDDRGGVYWGQGTQVTVSS

FLIPR IC50, GRO-α induced intracellular calcium release (Human CXCR2 [4]): 6.84 nM
FLIPR IC50, GRO-α induced intracellular calcium release (Cynomolgus CXCR2 [5]): 13.7 nM
[35S]GTPγS % inhibition of max, ENA-78 (Human CXCR2 [6]): 100%
[35S]GTPγS % inhibition of max, GRO-α (Human CXCR2 [6]): 100%
[35S]GTPγS % inhibition of max, IL-8 (Human CXCR2 [6]): 100%
[35S]GTPγS accumulation IC50, ENA-78 (Human CXCR2 [6]): 1.66 nM
[35S]GTPγS accumulation IC50, GRO-α (Human CXCR2 [6]): 1.38 nM
[35S]GTPγS accumulation IC50, IL-8 (Human CXCR2 [6]): 1.13 nM
Human Chemotaxis IC50 (vs rhGROα) (Human CXCR2 [7]): 0.16 nM
Human WBSC IC50 (vs rhGROα) (Human CXCR2 [7]): 0.445 nM
Cynomologus WBSC IC50 (vs rhGROα) (Cynomolgus CXCR2 [8]): 0.16 nM
B4: CXCR20014 (bispecific antibody, not shown: small tags and cut ends)
chain: EVQLVESGGGLVQPGGSLRLSCVASGSIVRINTMGWYRQTPGKQRELVADITSGGNINYIDAVKGRFTISRDNTKNTVYLQMNSLKPEDTAVYYCNAEIVVLVGVWTQRARTGNYWGQGTQVTVSSGGGGSGGGGSGGGGSGGGGSGGGGSGGGGSGGGGSEVQLVESGGELVQPGGSLRLSCAASGSILTINAMGWYRQAPGKQRELVVRRTRGGSTTYQDSVKGRFTISADIAKKTMYLQMNSLKPEDTAVYYCMLDDRGGVYWGQGTQVTVSS

FLIPR IC50, GRO-α induced intracellular calcium release (Human CXCR2 [1]): 1.91 nM
[35S]GTPγS % inhibition max, GRO-α (Human CXCR2 [1]): 100%
[35S]GTPγS accumulation IC50, GRO-α (Human CXCR2 [1]): 53.2 nM
FLIPR IC50, GRO-α induced intracellular calcium release (Cynomolgus CXCR2 [2]): 37.2 nM
HumanWBSC IC50 (rhGROα) (Human CXCR2 [3]): 6.6 nM
B7: 163D02 (VHH, not shown: small tags and cut ends)
VHH: EVQLVESGGGLVQAGGSLRLSCAASGRTFSDYAMGWFRQAPGKEREFVAAITWNGGRVFYTASVKGRFTISRDNAKNTMYLQMNSLKPEDTAVYYCAADKDRRTDYLGHPVAYWGQGTQVTVSS

Source: US20170101476A1 (Novartis, published 2017)
